As a reminder, the Km is the substrate concentration at which the rate is half of its maximum.

The test system of one data set is CL2. The following applies: pH 7, 2 mM PLP.
Substrate in the data set “purified protein”: NCCCC[C@H](N)C(=O)O
Description: purified protein. The following applies: pH 7, 2 mM PLP.

As to `NCCCC[C@H](N)C(=O)O` [L-lysine], in the data set with CL2, the Michaelis-Menten constant (Km) worked out at 22.2 ± 5.73 mM.

B1: CadA (Escherichia coli K-12) (protein)
chain: MNVIAILNHMGVYFKEEPIRELHRALERLNFQIVYPNDRDDLLKLIENNARLCGVIFDWDKYNLELCEEISKMNENLPLYAFANTYSTLDVSLNDLRLQISFFEYALGAAEDIANKIKQTTDEYINTILPPLTKALFKYVREGKYTFCTPGHMGGTAFQKSPVGSLFYDFFGPNTMKSDISISVSELGSLLDHSGPHKEAEQYIARVFNADRSYMVTNGTSTANKIVGMYSAPAGSTILIDRNCHKSLTHLMMMSDVTPIYFRPTRNAYGILGGIPQSEFQHATIAKRVKETPNATWPVHAVITNSTYDGLLYNTDFIKKTLDVKSIHFDSAWVPYTNFSPIYEGKCGMSGGRVEGKVIYETQSTHKLLAAFSQASMIHVKGDVNEETFNEAYMMHTTTSPHYGIVASTETAAAMMKGNAGKRLINGSIERAIKFRKEIKRLRTESDGWFFDVWQPDHIDTTECWPLRSDSTWHGFKNIDNEHMYLDPIKVTLLTPGMEKDGTMSDFGIPASIVAKYLDEHGIVVEKTGPYNLLFLFSIGIDKTKALSLLRALTDFKRAFDLNLRVKNMLPSLYREDPEFYENMRIQELAQNIHKLIVHHNLPDLMYRAFEVLPTMVMTPYAAFQKELHGMTEEVYLDEMVGRINANMILPYPPGVPLVMPGEMITEESRPVLEFLQMLCEIGAHYPGFETDIHGAYRQADGRYTVKVLKEESKK
With B1, the Michaelis-Menten constant (Km) in “purified protein” amounted to 29.23 ± 9.56 mM.

B2: LdcC (Escherichia coli K-12) (protein)
chain: MNIIAIMGPHGVFYKDEPIKELESALVAQGFQIIWPQNSVDLLKFIEHNPRICGVIFDWDEYSLDLCSDINQLNEYLPLYAFINTHSTMDVSVQDMRMALWFFEYALGQAEDIAIRMRQYTDEYLDNITPPFTKALFTYVKERKYTFCTPGHMGGTAYQKSPVGCLFYDFFGGNTLKADVSISVTELGSLLDHTGPHLEAEEYIARTFGAEQSYIVTNGTSTSNKIVGMYAAPSGSTLLIDRNCHKSLAHLLMMNDVVPVWLKPTRNALGILGGIPRREFTRDSIEEKVAATTQAQWPVHAVITNSTYDGLLYNTDWIKQTLDVPSIHFDSAWVPYTHFHPIYQGKSGMSGERVAGKVIFETQSTHKMLAALSQASLIHIKGEYDEEAFNEAFMMHTTTSPSYPIVASVETAAAMLRGNPGKRLINRSVERALHFRKEVQRLREESDGWFFDIWQPPQVDEAECWPVAPGEQWHGFNDADADHMFLDPVKVTILTPGMDEQGNMSEEGIPAALVAKFLDERGIVVEKTGPYNLLFLFSIGIDKTKAMGLLRGLTEFKRSYDLNLRIKNMLPDLYAEDPDFYRNMRIQDLAQGIHKLIRKHDLPGLMLRAFDTLPEMIMTPHQAWQRQIKGEVETIALEQLVGRVSANMILPYPPGVPLLMPGEMLTKESRTVLDFLLMLCSVGQHYPGFETDIHGAKQDEDGVYRVRVLKMAG
As to B2, in the data set “purified protein”, the Michaelis-Menten constant (Km) turned out to be 18.46 ± 0.89 mM.

The record behind these values is article PMC12096693 (Microbial Cell Factories, 2025).
